Source: patent US20220372155A1 (LYVGEN BIOPHARMA, published 2022)

Tests used:
[1] = molecular target: T1, Human PD-L1 ECD protein (mouse IgG2a Fc tag) (human, UniProt Q9NZQ7 19-238); assay: bridging ELISA, coated CD40 ECD-His, soluble PD-L1 ECD-mFc
T1 construct: extracellular domain; also called recombinant human PD-L1; not shown: mouse IgG2a Fc tag
Protocol: (§1) Exemplary anti-PD-L1/CD40 bi-specific antibodies were analyzed by ELISA for their simultaneous binding to recombinant human PD-L1 and human CD40. Briefly, Ly090 (human CD40 ECD protein with His tag) was diluted and coated onto an ELISA plate with a volume of 100 μL/well by incubation at 4° C. overnight. The next day, the plate was blocked by PBST-BSA buffer, then serially diluted samples of anti-PD-L1/CD40 bi-specific antibodies were pipetted into appropriate wells at 50 μL/well, and the plate was incubated for 1 h followed by Washing. Human PD-L1 ECD protein (mouse IgG2a Fc tag) was added into the plate at 50 μL/well. After 1-hour incubation at room temperature, HRP-conjugated anti-Mouse IgG, Fc G2a antibody was added into the plate at 100 μL/well. The plate was incubated for 1 hour at room temperature followed by washing. TMB substrate solution was added at 100 μL/well and the color development was stopped by adding 100 uL/well Stop Solution (2N H₂SO₄). Absorbance at 450 nm and 620 nm was read by Tecan F200 Pro plate reader. GraphPad 7.0, “[Agonist] vs. response—Variable slope (four parameters)” was used to plot the binding data and calculate binding EC50 values.

[2] = molecular target: T2, Ly090 (human CD40 ECD protein with His tag) (human, UniProt P25942 21-193); assay: as above
T2 construct: extracellular domain; also called human CD40 ECD protein (His tag); recombinant human CD40; not shown: His tag
T2 sequence (P25942 21-193): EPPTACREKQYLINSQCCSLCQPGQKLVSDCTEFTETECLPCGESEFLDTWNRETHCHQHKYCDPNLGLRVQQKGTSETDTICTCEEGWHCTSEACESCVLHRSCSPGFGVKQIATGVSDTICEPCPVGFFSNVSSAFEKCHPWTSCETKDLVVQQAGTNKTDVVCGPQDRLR
Protocol: as §1

[3] = molecular target: T3, human PD-L1 expressed on CHO cells (human, UniProt Q9NZQ7 19-290); assay: FACS, CHO cells
T3 construct: whole, on cells; also used for human PD-L1 on Raji cells in the reporter assay; also called cell surface PD-L1; Raji-PD-L1 cells
T3 sequence (Q9NZQ7 19-290): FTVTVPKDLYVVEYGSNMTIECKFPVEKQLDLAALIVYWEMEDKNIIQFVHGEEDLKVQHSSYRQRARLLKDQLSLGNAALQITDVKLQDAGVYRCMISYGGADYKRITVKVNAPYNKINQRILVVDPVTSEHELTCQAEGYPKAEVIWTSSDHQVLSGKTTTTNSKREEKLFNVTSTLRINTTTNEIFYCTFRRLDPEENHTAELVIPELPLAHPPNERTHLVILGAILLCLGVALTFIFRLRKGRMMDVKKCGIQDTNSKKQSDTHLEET

[4] = molecular target: T4, human CD40 expressed on CHO cells (human, UniProt P25942 21-277); assay: FACS, CHO cells
T4 construct: whole, on cells; also used for the reporter cells over-expressing human CD40; also called cellular CD40; CHO-CD40 cells
T4 sequence (P25942 21-277): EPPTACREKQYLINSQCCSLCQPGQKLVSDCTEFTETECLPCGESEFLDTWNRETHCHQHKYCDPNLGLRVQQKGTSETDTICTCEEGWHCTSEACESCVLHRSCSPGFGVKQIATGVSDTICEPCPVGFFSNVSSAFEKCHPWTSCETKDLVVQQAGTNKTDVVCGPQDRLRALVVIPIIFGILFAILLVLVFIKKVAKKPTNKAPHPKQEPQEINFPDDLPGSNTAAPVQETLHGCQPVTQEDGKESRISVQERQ

Measured: binding result

T1 sequence (Q9NZQ7 19-238): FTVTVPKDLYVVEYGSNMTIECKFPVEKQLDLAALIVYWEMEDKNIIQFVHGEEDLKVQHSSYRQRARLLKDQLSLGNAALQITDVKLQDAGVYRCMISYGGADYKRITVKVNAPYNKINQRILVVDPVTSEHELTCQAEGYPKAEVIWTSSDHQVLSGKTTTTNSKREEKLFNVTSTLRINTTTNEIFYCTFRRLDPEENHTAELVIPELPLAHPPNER

B1: Ly340 (bispecific antibody, human IgG1, kappa)
heavy: QVQLVQSGAEVKKPGASVKVSCKASGYTFTDFWMSWVRQAPGQGLEWMGQIYPNTGTTHSNEKFKGRVTMTRDTSTSTVYMELSSLRSEDTAVYYCARSYHISTTPNWFAYWGQGTLVTVSSASTKGPSVFPLAPSSKSTSGGTAALGCLVKDYFPEPVTVSWNSGALTSGVHTFPAVLQSSGLYSLSSVVTVPSSSLGTQTYICNVNHKPSNTKVDKKVEPKSCDKTHTCPPCPAPELLGPSVFLFPPKPKDTLMISRTPEVTCVVVDVSHEDPEVKFNWYVDGVEVHNAKTKPREEQYNSTYRVVSVLTVLHQDWLNGKEYKCKVSNKALPAPIEKTISKAKGQPREPQVYTLPPSREEMTKNQVSLTCLVKGFYPSDIAVEWESNGQPENNYKTTPPVLDSDGSFFLYSKLTVDKSRWQQGNVFSCSVMHEALHNHYTQKSLSLSPGGGGGSGGGGSGGGGSGGGGSEVQLVESGGGLVQPGGSLRLSCAASGFTFTNYGLHWVRQAPGKGLEWVSSISPSGGVTYYRDSVKGRFTISRDNSKNTLYLQMNSLRAEDTAVYYCAKPFLGWGGANWIAHWGQGTLVTVSSGGGGSGGGGSGGGGSGGGGSDIQMTQSPSSLSASVGDRVTITCLASEDISNDLAWYQQKPGKAPKLLIYFVDRLLDGVPSRFSGSGSGTDFTLTISSLQPEDFATYYCQQSYKYPPTFGQGTKLEIK
light: DIQMTQSPSSLSASVGDRVTITCKASQNVYKKLEWYQQKPGKVPKVLIYHTNILQTGVPSRFSGSGSGTDYTLTISSLQPEDVATYYCYQWNSGPTFGGGTKVEIKRTVAAPSVFIFPPSDEQLKSGTASVVCLLNNFYPREAKVQWKVDNALQSGNSQESVTEQDSKDSTYSLSSTLTLSKADYEKHKVYACEVTHQGLSSPVTKSFNRGEC
notes: Ly076 HC (IgG1 mutated Fc)-TM559 scFv VH-VL + Ly076 LC
binds: all assays above

B2: Ly350 (bispecific antibody, human IgG1, kappa)
heavy: QVQLVQSGAEVKKPGASVKVSCKASGYTFTDFWMSWVRQAPGQGLEWMGQIYPNTGTTHSNEKFKGRVTMTRDTSTSTVYMELSSLRSEDTAVYYCARSYHISTTPNWFAYWGQGTLVTVSSASTKGPSVFPLAPSSKSTSGGTAALGCLVKDYFPEPVTVSWNSGALTSGVHTFPAVLQSSGLYSLSSVVTVPSSSLGTQTYICNVNHKPSNTKVDKKVEPKSCDKTHTCPPCPAPELLGPSVFLFPPKPKDTLMISRTPEVTCVVVDVSHEDPEVKFNWYVDGVEVHNAKTKPREEQYNSTYRVVSVLTVLHQDWLNGKEYKCKVSNKALPAPIEKTISKAKGQPREPQVYTLPPSREEMTKNQVSLTCLVKGFYPSDIAVEWESNGQPENNYKTTPPVLDSDGSFFLYSKLTVDKSRWQQGNVFSCSVMHEALHNHYTQKSLSLSPG
light: DIQMTQSPSSLSASVGDRVTITCKASQNVYKKLEWYQQKPGKVPKVLIYHTNILQTGVPSRFSGSGSGTDYTLTISSLQPEDVATYYCYQWNSGPTFGGGTKVEIKRTVAAPSVFIFPPSDEQLKSGTASVVCLLNNFYPREAKVQWKVDNALQSGNSQESVTEQDSKDSTYSLSSTLTLSKADYEKHKVYACEVTHQGLSSPVTKSFNRGECGGGGSGGGGSGGGGSGGGGSDIQMTQSPSSLSASVGDRVTITCLASEDISNDLAWYQQKPGKAPKLLIYFVDRLLDGVPSRFSGSGSGTDFTLTISSLQPEDFATYYCQQSYKYPPTFGQGTKLEIKGGGGSGGGGSGGGGSGGGGSEVQLVESGGGLVQPGGSLRLSCAASGFTFTNYGLHWVRQAPGKGLEWVSSISPSGGVTYYRDSVKGRFTISRDNSKNTLYLQMNSLRAEDTAVYYCAKPFLGWGGANWIAHWGQGTLVTVSS
notes: Ly076 HC (IgG1 mutated Fc) + Ly076 LC-TM559 scFv VL-VH
binds: all assays above
